Data taken from publication PMC13385800 (2026).

B1: TBLR1-LgBiT wild type [not stated] / SETD5-SmBiT [not stated] (parent complex)
chain 1: MSISSDEVNFLVYRYLQESGFSHSAFTFGIESHISQSNINGALVPPAALISIIQKGLQYVEAEVSINEDGTLFDGRPIESLSLIDAVMPDVVQTRQQAYRDKLAQQQAAAAAAAAAAASQQGSAKNGENTANGEENGAHTIANNHTDMMEVDGDVEIPPNKAVVLRGHESEVFICAWNPVSDLLASGSGDSTARIWNLSENSTSGSTQLVLRHCIREGGQDVPSNKDVTSLDWNSEGTLLATGSYDGFARIWTKDGNLASTLGQHKGPIFALKWNKKGNFILSAGVDKTTIIWDAHTGEAKQQFPFHSAPALDVDWQSNNTFASCSTDMCIHVCKLGQDRPIKTFQGHTNEVNAIKWDPTGNLLASCSDDMTLKIWSMKQDNCVHDLQAHNKEIYTIKWSPTGPGTNNPNANLMLASASFDSTVRLWDVDRGICIHTLTKHQEPVYSVAFSPDGRYLASGSFDKCVHIWNTQTGALVHSYRGTGGIFEVCWNAAGDKVGASASDGSVCVLDLRK
chain 2: MSIAIPLGVTTSDTSYSDMAAGSDPESVEASPAVNEKSVYSTHNYGTTQRHGCRGLPYATIIPRSDLNGLPSPVEERCGDSPNSEGETVPTWCPCGLSQDGFLLNCDKCRGMSRGKVIRLHRRKQDNISGGDSSATESWDEELSPSTVLYTATQHTPTSITLTVRRTKPKKRKKSPEKGRAAPKTKKIKNSPSEAQNLDENTTEGWENRIRLWTDQYEEAFTNQYSADVQNALEQHLHSSKEFVGKPTILDTINKTELACNNTVIGSQMQLQLGRVTRVQKHRKILRAARDLALDTLIIEYRGKVMLRQQFEVNGHFFKKPYPFVLFYSKFNGVEMCVDARTFGNDARFIRRSCTPNAEVRHMIADGMIHLCIYAVSAITKDAEVTIAFDYEYSNCNYKVDCACHKGNRNCPIQKRNPNATELPLLPPPPSLPTIGAETRRRKARRKELEMEQQNEASEENNDQQSQEVPEKVTVSSDHEEVDNPEEKPEEEKEEVIDDQENLAHSRRTREDRKVEAIMHAFENLEKRKKRRDQPLEQSNSDVEITTTTSETPVGEETKTEAPESEVSNSVSNVTIPSTPQSVGVNTRRSSQAGDIAAEKLVPKPPPAKPSRPRPKSRISRYRTSSAQRLKRQKQANAQQAELSQAALEEGGSNSLVTPTEAGSLDSSGENRPLTGSDPTVVSITGSHVNRAASKYPKTKKYLVTEWLNDKAEKQECPVECPLRITTDPTVLATTLNMLPGLIHSPLICTTPKHYIRFGSPFIPERRRRPLLPDGTFSSCKKRWIKQALEEGMTQTSSVPQETRTQHLYQSNENSSSSSICKDNADLLSPLKKWKSRYLMEQNVTKLLRPLSPVTPPPPNSGSKSPQLATPGSSHPGEEECRNGYSLMFSPVTSLTTASRCNTPLQFELCHRKDLDLAKVGYLDSNTNSCADRPSLLNSGHSDLAPHPSLGPTSETGFPSRSGDGHQTLVRNSDQAFRTEFNLMYAYSPLNAMPRADGLYRGSPLVGDRKPLHLDGGYCSPAEGFSSRYEHGLMKDLSRGSLSPGGERACEGVPSAPQNPPQRKKVSLLEYRKRKQEAKENSAGGGGDSAQSKSKSAGAGQGSSNSVSDTGAHGVQGSSARTPSSPHKKFSPSHSSMSHLEAVSPSDSRGTSSSHCRPQENISSRWMVPTSVERLREGGSIPKVLRSSVRVAQKGEPSPTWESNITEKDSDPADGEGPETLSSALSKGATVYSPSRYSYQLLQCDSPRTESQSLLQQSSSPFRGHPTQSPGYSYRTTALRPGNPPSHGSSESSLSSTSYSSPAHPVSTDSLAPFTGTPGYFSSQPHSGNSTGSNLPRRSCPSSAASPTLQGPSDSPTSDSVSQSSTGTLSSTSFPQNSRSSLPSDLRTISLPSAGQSAVYQASRVSAVSNSQHYPHRGSGGVHQYRLQPLQGSGVKTQTGLS

Variants of: B1
Assay: NanoLuc complementation assay; n = 6–7 independent transfections per TBLR1 mutant; read off a plot

Row | Variant | ratio to parent
1 | chain 1 MSISSDEVNFLVYRYLQESGFSHSAFTFGIESHISQSNINGALVPPAALISIIQKGLQYVEAEVSINEDGTLFDGRPIESLSLIDAVMPDVVQTRQQAYRDKLAQQQAAAAAAAAAAASQQGSAKNGENTANGEENGAHTIANNHTDMMEVDGDVEIPPNKAVVLRGHESEVFICAWNPVSDLLASGSGDSTARIWNLSENSTSGSTQLVLRHCIREGGQDVPSNKDVTSLDWNSEGTLLATGSYDGFARIWTKDGNLASTLGQHKGPIFALKWNKKGNFILSAGVDKTTIIWDAHTGEAKQQFPFHSAPALDVDWQSNNTFASCSTDMCIHVCKLGQDRPIKTFQGHTNEVNAIKWDPTGNLLASCSDDMTLKIWSMKQDNCVHDLQAHNKEIYTIKWSPTGPGTNNPNANLMLARASFDSTVRLWDVDRGICIHTLTKHQEPVYSVAFSPDGRYLASGSFDKCVHIWNTQTGALVHSYRGTGGIFEVCWNAAGDKVGASASDGSVCVLDLRK [chain 1 S417R] | ~0.06
2 | chain 1 MSISSDEVNFLVYRYLQESGFSHSAFTFGIESHISQSNINGALVPPAALISIIQKGLQYVEAEVSINEDGTLFDGRPIESLSLIDAVMPDVVQTRQQAYRDKLAQQQAAAAAAAAAAASQQGSAKNGENTANGEENGAHTIANNHTDMMEVDGDVEIPPNKAVVLRGHESEVFICAWNPVSDLLASGSGDSTARIWNLSENSTSGSTQLVLRHCIREGGQDVPSNKDVTSLDWNSEGTLLATGSYDGFARIWTKDGNLASTLGQHKGPILALKWNKKGNFILSAGVDKTTIIWDAHTGEAKQQFPFHSAPALDVDWQSNNTFASCSTDMCIHVCKLGQDRPIKTFQGHTNEVNAIKWDPTGNLLASCSDDMTLKIWSMKQDNCVHDLQAHNKEIYTIKWSPTGPGTNNPNANLMLASASFDSTVRLWDVDRGICIHTLTKHQEPVYSVAFSPDGRYLASGSFDKCVHIWNTQTGALVHSYRGTGGIFEVCWNAAGDKVGASASDGSVCVLDLRK [chain 1 F270L] | ~1.8
3 | chain 1 MSISSDEVNFLVYRYLQESGFSHSAFTFGIESHISQSNINGALVPPAALISIIQKGLQYVEAEVSINEDGTLFDGRPIESLSLIDAVMPDVVQTRQQAYRDKLAQQQAAAAAAAAAAASQQGSAKNGENTANGEENGAHTIANNHTDMMEVDGDVEIPPNKAVVLRGHESEVFICAWNPVSDLLASGSGDSTARIWNLSENSTSGSTQLVLRHCIREGGQDVPSNKDVTSLDWNSEGTLLATGSYDGFARIWTKDGNLASTLGQHKGPIFALKWNKKGNFILSAGVDKTTIIWDAHTGEAKQQFPFHSAPALDVDWQSNNTFASCSTDMCIHVCKLGQDRPIKTFQGHTNEVNAIKWDPTGNLLASCSDDMTLKIWSMKQDNCVHDLQAHNKEIYTIKWSPTGPGTNNPNANLMLASASFDSTVRLWDVDRGICIHTLTKHQEPVCSVAFSPDGRYLASGSFDKCVHIWNTQTGALVHSYRGTGGIFEVCWNAAGDKVGASASDGSVCVLDLRK [chain 1 Y446C] | ~1.3
4 | chain 1 MSISSDEVNFLVYRYLQESGFSHSAFTFGIESHISQSNINGALVPPAALISIIQKGLQYVEAEVSINEDGTLFDGRPIESLSLIDAVMPDVVQTRQQAYRDKLAQQQAAAAAAAAAAASQQGSAKNGENTANGEENGAHTIANNHTDMMEVDGDVEIPPNKAVVLRGHESEVFICAWNPVSDLLASGSGDSTARIWNLSENSTSGSTQLVLRHCIREGGQDVPSNKDVTSLDWNSEGTLLATGSYDGFARIWTKDGNLASTLGQHKGPIFALKWNKKGNFILSAGVDKTTIIWDAHTGEAKQQFPFHSAPALDVDWQSNNSFASCSTDMCIHVCKLGQDRPIKTFQGHTNEVNAIKWDPTGNLLASCSDDMTLKIWSMKQDNCVHDLQAHNKEIYTIKWSPTGPGTNNPNANLMLASASFDSTVRLWDVDRGICIHTLTKHQEPVYSVAFSPDGRYLASGSFDKCVHIWNTQTGALVHSYRGTGGIFEVCWNAAGDKVGASASDGSVCVLDLRK [chain 1 T321S] | ~1.1
5 | chain 1 MSISSDEVNFLVYRYLQESGFSHSAFTFGIESHISQSNINGALVPPAALISIIQKGLQYVEAEVSINEDGTLFDGRPIESLSLIDAVMPDVVQTRQQAYRDKLAQQQAAAAAAAAAAASQQGSAKNGENTANGEENGAHTIANNHTDMMEVDGDVEIPPNKAVVLRGHESEVFICAWNPVSDLLASGSGDSTARIWNLSENSTSGSTQLVLRHCIREGGQDVPSNKDVTSLDWNSEGTLLATGSYDGFARIWTKDGNLASTLGQHKGPIFALKWNKKGNFILSAGVDKTTIIWDAHTGEAKQQFPFHSAPALDVDWQSNNTFASCSTDMCIHVCKLGQDRPIKTFQGHTNEVNAIKWDPTGNLLASCSDDMTLKIWSMKQDNCVHDLQAHNKEIYTIKWSPTGPGTNNPNANLMLASASFDSTVRLWDVDRGICIHTLTKHQERVYSVAFSPDGRYLASGSFDKCVHIWNTQTGALVHSYRGTGGIFEVCWNAAGDKVGASASDGSVCVLDLRK [chain 1 P444R] | ~0.7
6 | chain 1 MSISSDEVNFLVYRYLQESGFSHSAFTFGIESHISQSNINGALVPPAALISIIQKGLQYVEAEVSINEDGTLFDGRPIESLSLIDAVMPDVVQTRQQAYRDKLAQQQAAAAAAAAAAASQQGSAKNGENTANGEENGAHTIANNHTDMMEVDGDVEIPPNKAVVLRGHESEVFICAWNPVSDLLASGSGDSTARIWNLSENSTSGSTQLVLRHCIREGGQDVPSNKDVTSLDWNSEGTLLATGSYDGFARIWTKDGNLASTLGQHKGPIFALKWNKKGNFILSAGVDKTTIIWDAHTGEAKQQFPFHSAPALDVDWQSNNTFASCSTHMCIHVCKLGQDRPIKTFQGHTNEVNAIKWDPTGNLLASCSDDMTLKIWSMKQDNCVHDLQAHNKEIYTIKWSPTGPGTNNPNANLMLASASFDSTVRLWDVDRGICIHTLTKHQEPVYSVAFSPDGRYLASGSFDKCVHIWNTQTGALVHSYRGTGGIFEVCWNAAGDKVGASASDGSVCVLDLRK [chain 1 D328H] | ~0.55
